{
  "source": "patent US20120077964A1",
  "about": "(Merck Sharp & Dohme, published 2012)",
  "binders": {"B1": {"name": "3BX5C01 Fab (Fab, V domains shown)", "VH": "QVQLVQSGAEVKKPGESLKISCKGSGYSFTSYGISWVRQMPGKGLEWMGMIDPSDSFTTYSPSFQGQVTISADKSISTAYLQWSSLKASDTAMYYCARGYYFTYALQPMDHWGQGTLVTVSS", "VL": "DIELTQPPSVSVAPGQTARISCSGDNLRDYIVHWYQQKPGQAPVLVIYDDSNRPSGIPERFSGSNSGNTATLTISGTQAEDEADYYCGFDNGGDIDVFGGGTKLTVLG"}, "B2": {"name": "1CX1G08 Fab (Fab, V domains shown)", "VH": "QVQLVESGGGLVQPGGSLRLSCAASGFTFSDYWVSWVRQAPGKGLEWVSFISYDGSSTYYADSVKGRFTISRDNSKNTLYLQMNSLRAEDTAVYYCARTYFEGVDVWGQGTLVTVSS", "VL": "DIELTQPPSVSVAPGQTARISCSGDNIGTYYVHWYQQKPGQAPVLVIYDDSNRPSGIPERFSGSNSGNTATLTISGTQAEDEADYYCGTWDNTSFNLVFGGGTKLTVLG"}, "B3": {"name": "3CX4B08 Fab (Fab, V domains shown)", "VH": "QVQLVESGGGLVQPGGSLRLSCAASGFTFSNYTMNWVRQAPGKGLEWVSFISSSSSETYYADSVKGRFTISRDNSKNTLYLQMNSLRAEDTAVYYCARGYGDMVDLWGQGTLVTVSS", "VL": "DIELTQPPSVSVAPGQTARISCSGDSIPTYYVAWYQQKPGQAPVLVIYSDTDRPSGIPERFSGSNSGNTATLTISGTQAEDEADYYCQSFDNHGYHVFGGGTKLTVLG"}, "B4": {"name": "3CX2A06 Fab (Fab, V domains shown)", "VH": "QVQLVQSGAEVKKPGESLKISCKGSGYSFSNFWIAWVRQMPGKGLEWMGIIDPSDSWTRYSPSFQGQVTISADKSISTAYLQWSSLKASDTAMYYCARGDGQDFDNWGQGTLVTVSS", "VL": "DIQMTQSPSSLSASVGDRVTITCRASQNINSYLNWYQQKPGKAPKLLIYAASSLQSGVPSRFSGSGSGTDFTLTISSLQPEDFAVYYCLQNYDLPNTFGQGTKVEIKR"}, "B5": {"name": "3CX3D02 Fab (Fab, V domains shown)", "VH": "QVQLVQSGAEVKKPGESLKISCKGSGYSFTNSWIGWVRQMPGKGLEWMGIIYPSDSYTIYSPSFQGQVTISADKSISTAYLQWSSLKASDTAMYYCARGGGYYYALMDVWAQGTLVTVSS", "VL": "DIQMTQSPSSLSASVGDRVTITCRASQTISTWLNWYQQKPGKAPKLLIYAASSLQSGVPSRFSGSGSGTDFTLTISSLQPEDFATYYCLQDSSLPLTFGQGTKVEIKR"}},
  "assay_in_all_cases": "cell-based or functional assay",
  "key": {"[1]": {"target": "T1, recombinant human PCSK9, V5-, His-tagged (human, UniProt Q8NBP7 31-692, limits assumed)", "T1 sequence (Q8NBP7 31-692 limits assumed)": "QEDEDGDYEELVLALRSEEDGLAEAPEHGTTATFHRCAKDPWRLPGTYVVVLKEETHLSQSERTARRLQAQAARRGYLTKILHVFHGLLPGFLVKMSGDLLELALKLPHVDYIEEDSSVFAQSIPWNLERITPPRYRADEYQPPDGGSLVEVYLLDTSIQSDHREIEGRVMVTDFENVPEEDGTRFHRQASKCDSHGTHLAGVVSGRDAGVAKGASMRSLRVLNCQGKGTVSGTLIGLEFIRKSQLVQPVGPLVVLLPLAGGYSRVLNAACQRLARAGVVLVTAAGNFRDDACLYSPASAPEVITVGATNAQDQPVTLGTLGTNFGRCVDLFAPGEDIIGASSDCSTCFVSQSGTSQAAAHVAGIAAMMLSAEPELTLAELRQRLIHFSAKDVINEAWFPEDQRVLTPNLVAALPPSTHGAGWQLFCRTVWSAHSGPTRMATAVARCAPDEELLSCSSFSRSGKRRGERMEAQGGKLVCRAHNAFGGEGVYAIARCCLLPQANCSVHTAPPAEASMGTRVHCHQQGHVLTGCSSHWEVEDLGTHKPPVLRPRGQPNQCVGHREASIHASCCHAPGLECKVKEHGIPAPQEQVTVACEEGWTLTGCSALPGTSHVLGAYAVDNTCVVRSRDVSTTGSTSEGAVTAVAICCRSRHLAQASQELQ"}, "[2]": {"target": "T1, recombinant human PCSK9, V5-, His-tagged", "remark": "listed apart in the source"}, "[3]": {"target": "T1, recombinant human PCSK9, V5-, His-tagged", "remark": "listed apart in the source"}, "[4]": {"target": "T1, recombinant human PCSK9, V5-, His-tagged", "remark": "listed apart in the source"}, "[5]": {"target": "T1, recombinant human PCSK9, V5-, His-tagged", "remark": "listed apart in the source"}},
  "note": "Where two headings read alike, the source gives them in different places.",
  "data": [
    {"binder": "B1", "values": [
      {"measurement": "IC50: Fab titrated against PCSK9 fixed at 25 µg/ml, recovery of cellular diI-LDL uptake (Exopolar assay)", "setting": "[1]", "result": 1250, "unit": "nM"}
    ]},
    {"binder": "B2", "values": [
      {"measurement": "IC50: Fab titrated against PCSK9 fixed at 25 µg/ml, recovery of cellular diI-LDL uptake (Exopolar assay)", "setting": "[2]", "result": 267, "unit": "nM"}
    ]},
    {"binder": "B3", "values": [
      {"measurement": "IC50: Fab titrated against PCSK9 fixed at 25 µg/ml, recovery of cellular diI-LDL uptake (Exopolar assay)", "setting": "[3]", "result": 127, "unit": "nM"}
    ]},
    {"binder": "B4", "values": [
      {"measurement": "IC50: Fab titrated against PCSK9 fixed at 25 µg/ml, recovery of cellular diI-LDL uptake (Exopolar assay)", "setting": "[4]", "result": 107, "unit": "nM"}
    ]},
    {"binder": "B5", "values": [
      {"measurement": "IC50: Fab titrated against PCSK9 fixed at 25 µg/ml, recovery of cellular diI-LDL uptake (Exopolar assay)", "setting": "[5]", "result": 269, "unit": "nM"}
    ]}
  ]
}
